A short description of this series: protein stability index of a GFP-peptide fusion (GPS, HEK-293T) (PSI 1-6); higher = more stable. The following applies: c terminus: a fixed tail appended.

We go through 52 sequences from the supplement of paper PMC10567573.

± gives the standard deviation.
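Further: 24-mer peptide tiles fused after GFP, lentivirally expressed, FACS-sorted into six equal bins by GFP/DsRed ratio, decoded by Illumina sequencing, PSI is the read-weighted mean bin number.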

With GDDSDLSEGFESDSSHDSARASEG [SMG5], the protein stability index is, setting by setting: (treatment: DMSO) 5.47 ± 0.3; (treatment: MLN4924 1 uM, 8 h) 5.48 ± 0.13.

Take GDLQDTKENREEARFQDKQYSSHH [CHGB]: the protein stability index amounted to 5.18 ± 0.21 (treatment: DMSO) and 5.02 ± 0.35 (treatment: MLN4924 1 uM, 8 h).

Take GEGTFGKVVECLDHARGKSQVALK [CLK3]: the protein stability index reads like this: (treatment: DMSO) 4.45 ± 0.33; (treatment: MLN4924 1 uM, 8 h) 4.66 ± 0.082.

On to GEGTGSPPKWQIGEQEFEALMRML [ADD1], for which the protein stability index came out at 3.29 ± 0.45 (treatment: DMSO) and 3.2 ± 0.31 (treatment: MLN4924 1 uM, 8 h).

Consider GEKPFTCHECGKKFSQNSHLIKHR [ZNF75A], for which the protein stability index came to 3.44 ± 0.35 (treatment: DMSO) and 3.9 ± 0.56 (treatment: MLN4924 1 uM, 8 h).

For the sequence GELRSKSGHKLYIFLFQDILVLTR [NET1], the protein stability index (treatment: DMSO) was 2.5 ± 0.66 and the protein stability index (treatment: MLN4924 1 uM, 8 h) is 1.75 ± 0.27.

GELSQARGQEPARADQLCQQELRE [PRPH]: the protein stability index (treatment: DMSO) was determined as 5.26 ± 0.56 and the protein stability index (treatment: MLN4924 1 uM, 8 h) was 5.56 ± 0.085.

As for GETDEVTKTEDRELVLRKDCPKIV [ZSCAN9], the protein stability index runs as follows: (treatment: DMSO) 5.48 ± 0.14; (treatment: MLN4924 1 uM, 8 h) 5.44 ± 0.24.

In turn, GGAGKEGVRVNNRFELINIDDLED [TCF25] had a protein stability index (treatment: DMSO) of 4.82 ± 0.49 and a protein stability index (treatment: MLN4924 1 uM, 8 h) of 4.91 ± 0.28.

In the case of GGDHRYVNNYTNSFGGEWSAPDTM [TRIM29], the protein stability index by setting is: (treatment: DMSO) 3.51 ± 0.44; (treatment: MLN4924 1 uM, 8 h) 3.51 ± 0.32.

For the sequence GGGGGGGGKSGGIVISPFRLEELT [CCDC6], the protein stability index by setting is: (treatment: DMSO) 3.34 ± 0.12; (treatment: MLN4924 1 uM, 8 h) 3.59 ± 0.41.

GGGVATSPMLIVFHGKYSTINPLW [GLT8D2]: the protein stability index is, setting by setting: (treatment: DMSO) 3.02 ± 1.3; (treatment: MLN4924 1 uM, 8 h) 2.36 ± 0.56.

Take GGKYLGRTKVVKPYSTVDNPVYYG [EFHC1]: the protein stability index turned out to be 2.87 ± 0.33 (treatment: DMSO) and 2.97 ± 0.33 (treatment: MLN4924 1 uM, 8 h).

As for GGMQALGLHLTDPSQRLVQNCLWT [CTNNB1], the protein stability index runs as follows: (treatment: DMSO) 2.11 ± 0.13; (treatment: MLN4924 1 uM, 8 h) 2.1 ± 0.44.

For the sequence GGRALVVRKVPPGYSIKVFDFERS [SMAD6], the protein stability index runs as follows: (treatment: DMSO) 2.52 ± 0.33; (treatment: MLN4924 1 uM, 8 h) 2.37 ± 0.51.

As for GGRRPGTSPALLQGTAEEDHVDLS [CDKN1A], the protein stability index came out at 5.46 ± 0.23 (treatment: DMSO) and 5.33 ± 0.18 (treatment: MLN4924 1 uM, 8 h).

Turning to GGYFKARLKFPIDYPYSPPAFRFL [CDC34], the protein stability index was 2.82 ± 0.33 (treatment: DMSO) and 2.58 ± 0.51 (treatment: MLN4924 1 uM, 8 h).

Regarding GHISLRRENSSDSPKELKRRNSSS [DLC1], the protein stability index runs as follows: (treatment: DMSO) 5.03 ± 0.27; (treatment: MLN4924 1 uM, 8 h) 5.23 ± 0.15.

In the case of GHVLLTDSEFSMQEPMVPAKLGTQ [PPFIA4], the protein stability index (treatment: DMSO) turned out to be 4.31 ± 0.1 and the protein stability index (treatment: MLN4924 1 uM, 8 h) is 3.94 ± 0.26.

As to GHWTNVTPMATKRSGAGVALLNDH [KLHL12], the protein stability index came to 3.48 ± 0.079 (treatment: DMSO) and 3.62 ± 0.085 (treatment: MLN4924 1 uM, 8 h).

With GIFQAMCLLICAEMYQVSRLQHIC [RHOBTB3], the protein stability index amounted to 2.99 ± 0.59 (treatment: DMSO) and 3.09 ± 0.34 (treatment: MLN4924 1 uM, 8 h).

For the sequence GIGYNGMPNGCSDDVLPWRRTAEN [DCTD], the protein stability index is, setting by setting: (treatment: DMSO) 3.03 ± 0.24; (treatment: MLN4924 1 uM, 8 h) 2.87 ± 0.1.

For the sequence GKGFRDRNVTGTPLTGDKDDEEVD [ADAMTSL2], the protein stability index came to 5.59 ± 0.21 (treatment: DMSO) and 5.51 ± 0.34 (treatment: MLN4924 1 uM, 8 h).

As for GKPLAGIYRKREEKRNAGNAVRSA [KMT5A], the protein stability index reads like this: (treatment: DMSO) 4.24 ± 0.35; (treatment: MLN4924 1 uM, 8 h) 4.39 ± 0.19.

GLDFLHANCIVHRDLKPENILVTS [CDK4]: the protein stability index was 2.49 ± 0.23 (treatment: DMSO) and 2.61 ± 0.4 (treatment: MLN4924 1 uM, 8 h).

For GLDIGAQGEPLGYRQDDPSYRSFH [CTNNB1], the protein stability index (treatment: DMSO) was found to be 4.14 ± 0.12 and the protein stability index (treatment: MLN4924 1 uM, 8 h) is 4.22 ± 0.19.

Take GLDPEPLPLMDLCRRSIRSALGRQ [SPSB4]: the protein stability index is, setting by setting: (treatment: DMSO) 3.79 ± 0.23; (treatment: MLN4924 1 uM, 8 h) 3.75 ± 0.18.

GLFAVGEHTGEVRTARALLDRDAL [PCDHGA10] showed a protein stability index (treatment: DMSO) of 3.84 ± 0.57 and a protein stability index (treatment: MLN4924 1 uM, 8 h) of 3.81 ± 0.29.

GLGNIWRFPYLCQKNGGGAYLVPY [SLC6A17] showed a protein stability index (treatment: DMSO) of 2.44 ± 0.43 and a protein stability index (treatment: MLN4924 1 uM, 8 h) of 2.54 ± 0.49.

GLVKKYMNSLLIGELSPEQPSFEP [FADS1]: the protein stability index is, setting by setting: (treatment: DMSO) 2.25 ± 0.089; (treatment: MLN4924 1 uM, 8 h) 2.34 ± 0.45.

GMEGDWSWVDDTPFNKVQSARFWI [CD207]: the protein stability index was found to be 1.82 ± 0.3 (treatment: DMSO) and 2.25 ± 0.32 (treatment: MLN4924 1 uM, 8 h).

As for GMGLTGTMGMGMPNIAMTSGTVQP [CLINT1], the protein stability index is, setting by setting: (treatment: DMSO) 3.84 ± 0.17; (treatment: MLN4924 1 uM, 8 h) 3.69 ± 0.13.

In the case of GPWSCENFNPLLVAGGVAVAAIAL [CEND1], the protein stability index came out at 3.34 ± 0.4 (treatment: DMSO) and 2.58 ± 0.9 (treatment: MLN4924 1 uM, 8 h).

GRKPERRRLKTTRLKEYTIKSHSS [DAPK3] yielded a protein stability index (treatment: DMSO) of 3.92 ± 0.17 and a protein stability index (treatment: MLN4924 1 uM, 8 h) of 4.06 ± 0.29.

Regarding GRLGRWLRSTRFSGSLDRLRETRV [PCDHGC5], the protein stability index is, setting by setting: (treatment: DMSO) 3.34 ± 0.18; (treatment: MLN4924 1 uM, 8 h) 3.3 ± 0.36.

In the case of GRLYVHPDSPATGAHWMRQLVSFQ [TBX5], the protein stability index runs as follows: (treatment: DMSO) 2.32 ± 0.26; (treatment: MLN4924 1 uM, 8 h) 2.34 ± 0.2.

For GRTCITDLQLTVGGAQASGTLIGV [MFSD9], the protein stability index (treatment: DMSO) was 2.33 ± 0.31 and the protein stability index (treatment: MLN4924 1 uM, 8 h) is 2.04 ± 0.3.

Take GSAEKQAGEAHMAADGETNGSCEN [EHMT1]: the protein stability index runs as follows: (treatment: DMSO) 5.49 ± 0.37; (treatment: MLN4924 1 uM, 8 h) 5.6 ± 0.2.

Turning to GSENRNHRLLNMARNNNDPGRLTE [RNF180], the protein stability index amounted to 4.08 ± 0.22 (treatment: DMSO) and 4.26 ± 0.24 (treatment: MLN4924 1 uM, 8 h).

As to GSGADRIYDLNIPAFVKFAYVAER [NCK2], the protein stability index amounted to 2.35 ± 0.29 (treatment: DMSO) and 2.36 ± 0.13 (treatment: MLN4924 1 uM, 8 h).

With GSLDNAHHVPGGGNVKIDSQKLNF [MAP2], the protein stability index (treatment: DMSO) is 4.27 ± 0.18 and the protein stability index (treatment: MLN4924 1 uM, 8 h) is 4.43 ± 0.32.

Regarding GSLGSRAEPAPRAREGGGCGRSEV [SMAD6], the protein stability index worked out at 4.84 ± 0.15 (treatment: DMSO) and 4.92 ± 0.11 (treatment: MLN4924 1 uM, 8 h).

For the sequence GSNGYILNKPALQAQPLRTTSTLA [EHMT1], the protein stability index is, setting by setting: (treatment: DMSO) 3.59 ± 0.36; (treatment: MLN4924 1 uM, 8 h) 3.44 ± 0.17.

Regarding GSTLIFYKYCDHENAAFKDVALVL [TOR1AIP2], the protein stability index was 2.43 ± 0.59 (treatment: DMSO) and 2.58 ± 0.73 (treatment: MLN4924 1 uM, 8 h).

For GSYGGFASAPTTPCQKSPNGVRVF [TRIM9], the protein stability index runs as follows: (treatment: DMSO) 3.17 ± 0.18; (treatment: MLN4924 1 uM, 8 h) 3.25 ± 0.24.

In the case of GTMGMAPLGNTPMMNQSMMGMNMN [CLINT1], the protein stability index by setting is: (treatment: DMSO) 3.39 ± 0.45; (treatment: MLN4924 1 uM, 8 h) 3.52 ± 0.21.

In the case of GTPKDHDSPENGADSFESSDSLLQ [ETS2], the protein stability index by setting is: (treatment: DMSO) 5.46 ± 0.23; (treatment: MLN4924 1 uM, 8 h) 5.47 ± 0.23.

For GVEEIKGHPFFEGVDWEHIRERPA [STK38L], the protein stability index was found to be 3.97 ± 0.8 (treatment: DMSO) and 4.32 ± 0.37 (treatment: MLN4924 1 uM, 8 h).

As to GVEPAPWAQLEAPARLLLQALQAG [FANCE], the protein stability index reads like this: (treatment: DMSO) 2.89 ± 0.27; (treatment: MLN4924 1 uM, 8 h) 2.92 ± 0.38.

For the sequence GWVSGQLRYSVVEESEPGTLVGNV [PCDHGC5], the protein stability index by setting is: (treatment: DMSO) 3.03 ± 0.24; (treatment: MLN4924 1 uM, 8 h) 3.07 ± 0.22.

For HARARDQGQPAMEGHCVIQVDVGD [PCDHGC5], the protein stability index was 4.61 ± 0.068 (treatment: DMSO) and 4.58 ± 0.23 (treatment: MLN4924 1 uM, 8 h).

Regarding HEEEVSVLRCQLGDRLNVEVDAAP [KRT36], the protein stability index by setting is: (treatment: DMSO) 5.17 ± 0.26; (treatment: MLN4924 1 uM, 8 h) 4.95 ± 0.32.
